Test results from patent US20080038257A1 (AVEO PHARMACEUTICALS, published 2008).
Read-outs that look alike come from different tables or passages of the source.

Tests used:
Experiment in all cases: cell-based or functional assay
[1] = target: T1, recombinant human HGF (R&D Systems, Catalog No. 294-HGN-025) (human, UniProt P14210 32-728)
[2] = target: T1, recombinant human HGF (R&D Systems, …); remark: listed apart in the source
[3] = target: T1, recombinant human HGF (R&D Systems, …); remark: listed apart in the source
[4] = target: T1, recombinant human HGF (R&D Systems, …); remark: listed apart in the source

T1 sequence (P14210 32-728 limits assumed): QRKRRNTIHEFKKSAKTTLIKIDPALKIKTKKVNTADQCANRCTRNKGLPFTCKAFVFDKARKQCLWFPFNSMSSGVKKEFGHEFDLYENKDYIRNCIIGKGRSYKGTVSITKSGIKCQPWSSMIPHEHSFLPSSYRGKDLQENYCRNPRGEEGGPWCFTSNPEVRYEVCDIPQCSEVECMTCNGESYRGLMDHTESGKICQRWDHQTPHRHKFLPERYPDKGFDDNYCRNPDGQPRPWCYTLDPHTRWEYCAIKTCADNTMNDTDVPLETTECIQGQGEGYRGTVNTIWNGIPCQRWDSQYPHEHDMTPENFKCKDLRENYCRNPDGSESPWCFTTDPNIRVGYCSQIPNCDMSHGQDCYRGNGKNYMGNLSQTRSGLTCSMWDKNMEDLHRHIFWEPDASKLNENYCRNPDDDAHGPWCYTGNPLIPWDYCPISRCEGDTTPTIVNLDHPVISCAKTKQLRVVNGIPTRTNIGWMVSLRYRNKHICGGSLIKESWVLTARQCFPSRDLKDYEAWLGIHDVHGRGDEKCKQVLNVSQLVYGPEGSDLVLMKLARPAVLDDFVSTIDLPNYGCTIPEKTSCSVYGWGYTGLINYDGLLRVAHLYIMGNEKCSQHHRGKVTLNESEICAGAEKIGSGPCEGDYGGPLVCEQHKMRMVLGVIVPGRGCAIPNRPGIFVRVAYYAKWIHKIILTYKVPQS

| Binder | IC50 (nM), HGF stimulated BrdU incorporation in 4MBr-5 cells [1] | EC50 in nM, HGF-stimulated c-Met phosphorylation in PC-3 cells, Average of Two Trials [2] | IC50 (nM), HGF stimulated BrdU incorporation in 4MBr-5 cells [3] | HGF-stimulated c-Met phosphorylation in PC-3 cells (assay of Example 9), Average of Two Trials [4] |
| --- | --- | --- | --- | --- |
| anti-hHGF monoclonal antibody 2B8 (antibody, mouse IgG1, kappa) heavy: QVQLQQPGAELVKPGTSVKLSCKASGYTFTTYWMHWVNQRPGQGLEWIGEINPTNGHTNYNEKFKSKATLTVDKSSSTAYMQLSSLTSEDSAVYYCARNYVGSIFDYWGQGTTLTVSSAKTTPPSVYPLAPGSAAQTNSMVTLGCLVKGYFPEPVTVTWNSGSLSSGVHTFPAVLQSDLYTLSSSVTVPSSTWPSETVTCNVAHPASSTKVDKKIVPRDCGCKPCICTVPEVSSVFIFPPKPKDVLTITLTPKVTCVVVDISKDDPEVQFSWFVDDVEVHTAQTQPREEQFNSTFRSVSELPIMHQDWLNGKEFKCRVNSAAFPAPIEKTISKTKGRPKAPQVYTIPPPKEQMAKDKVSLTCMITDFFPEDITVEWQWNGQPAENYKNTQPIMDTDGSYFVYSKLNVQKSNWEAGNTFTCSVLHEGLHNHHTEKSLSHSPGK light: NIVMTQSPKSMSMSVGERVTLSCKASENVVSYVSWYQQKPAQSPKLLIYGASNRNTGVPDRFTGSGSATDFTLTISSVRAEDLADYHCGQSYNYPYTFGGGTRLEIKRADAAPTVSIFPPSSEQLTSGGASVVCFLNNFYPKDINVKWKIDGSERQNGVLNSWTDQDSKDSTYSMSSTLTLTKDEYERHNSYTCEATHKTSTSPIVKSFNRNEC | 0.86 nM | 0.287 nM | 1.41 nM | 0.91 nM |
| anti-hHGF monoclonal antibody 3D11 (antibody, mouse IgG1, kappa, V domains shown) VH: QVQLKESGPGLVAPSQSLSITCTVSGFSLTSYSLHWVRQPPGKGLEWLGVIWAGGNTNYNSSLMSRLTIRKDNSKSQVFLKMNSLQTDDTAMYYCARERFAYWGQGTLVTVSA VL: QIVLTQSPAIMSAYPGEKVTMTCSASSSVSYMHWYQQKSGTSPKRWIYDTSKLASGVPARFSGSGSGTSYSLTISSMEAEDAATYYCQQWSSNPLTFGAGTKLELKR |  | 2.28 nM | 51.1 nM |  |
| anti-hHGF monoclonal antibody 3B6 (antibody, mouse IgG1, kappa, V domains shown) VH: QVQLQQSGAELVRPGSSVKISCKASGYVFSSYWMNWVKQRPGQGLEWIGQIYPGDGDSNYNGNFKGKATLTADKSSSTAYMQLSSLTSEDSAVYFCASQLGLRENYFDYWGQGTTLTVSS VL: DIKMTQSPSSMYASLGERVTITCKASQDIKSYLSWFQQKPGKSPKTLIYRVNRLVDGVPSRFSGSGSGQDSSLTITSLENEDMGIYYCLQYDEFPFTFGGGTKLEIKR |  | 1.01 nM | 36.1 nM |  |
| anti-hHGF monoclonal antibody 1F3 (antibody, mouse IgG1, kappa, V domains shown) VH: EVQLVESGGGLVQSGGSLKLSCAASGFTFSNYFMSWVRQTPEKRLEWVAYISSGGGSTYYPDSVKGRFTISRDNAKNTLYLQMSSLKSEDTAMYYCVRQGDGYYGDYAMDYWGQGTSVTVSS VL: DIQMTQSPASLSVSVGETVTITCRASENIYSNLAWYQQKQGKSPQLLVYDATHLPDGVPSRFSGSGSGTQFSLKINSLQSEDFGSYYCQHFWGTPYTFGGGTRLEIKR |  | 1.19 nM | 1.94 nM |  |
| HE2B8-1 (LR2B8HC + IgG1 G1m(3) allele 1 plus LR2B8LC + Kappa Km(3) allele 1) (antibody, V domains shown) VH: QVQLVQPGAEVVKPGTSVKLSCKASGYTFTTYWMHWVNQAPGQGLEWIGEINPTNGHTNYNEKFKGKATLTVDKSTSTAYMELSSLRSEDTAVYYCARNYVGSIFDYWGQGTLLTVSS VL: DIVMTQSPDSMAMSVGERVTLNCKASENVVSYVSWYQQKPGQSPKLLIYGASNRNTGVPDRFSGSGSATDFTLTISSVQAEDVADYHCGQSYNYPYTFGQGTKLEIKR | 0.47 nM |  |  | 0.8 nM |
| HE2B8-3 (LRMR2B8HC + IgG1 G1m(3) allele 1 plus LR2B8LC + Kappa Km(3) allele 1) (antibody, V domains shown) VH: QVQLVQPGAEVKKPGTSVKLSCKASGYTFTTYWMHWVRQAPGQGLEWIGEINPTNGHTNYNQKFQGRATLTVDKSTSTAYMELSSLRSEDTAVYYCARNYVGSIFDYWGQGTLLTVSS VL: DIVMTQSPDSMAMSVGERVTLNCKASENVVSYVSWYQQKPGQSPKLLIYGASNRNTGVPDRFSGSGSATDFTLTISSVQAEDVADYHCGQSYNYPYTFGQGTKLEIKR | 0.55 nM |  |  | 0.79 nM |
| HE2B8-2 (LR2B8HC + IgG1 G1m(3) allele 1 plus LRMR2B8LC + Kappa Km(3) allele 1) (antibody, V domains shown) VH: QVQLVQPGAEVVKPGTSVKLSCKASGYTFTTYWMHWVNQAPGQGLEWIGEINPTNGHTNYNEKFKGKATLTVDKSTSTAYMELSSLRSEDTAVYYCARNYVGSIFDYWGQGTLLTVSS VL: DIVMTQSPDSLAMSLGERVTLNCKASENVVSYVSWYQQKPGQSPKLLIYGASNRESGVPDRFSGSGSATDFTLTISSVQAEDVADYHCGQSYNYPYTFGQGTKLEIKR | 0.66 nM |  |  | 0.88 nM |

Now from value to binder:

| IC50 (nM), HGF stimulated BrdU incorporation in 4MBr-5 cells [1] | EC50 in nM, HGF-stimulated c-Met phosphorylation in PC-3 cells, Average of Two Trials [2] | IC50 (nM), HGF stimulated BrdU incorporation in 4MBr-5 cells [3] | HGF-stimulated c-Met phosphorylation in PC-3 cells (assay of Example 9), Average of Two Trials [4] | Binder |
| --- | --- | --- | --- | --- |
|  | 1.39 nM | 19.2 nM |  | anti-hHGF monoclonal antibody 2F8 (antibody, mouse IgG1, kappa, V domains shown) VH: QVQLKQSGAELVRPGTSVKMSCKASGYTFTTYYIHWVNQRPGQGLEWIGKIGPGSGSTYYNEMFKDKATLTVDTSSSTAYMQLSSLTSDDSAVYFCARRGLGRGFDYWGQGTTLTVSS VL: DIVLTQSPASLAVSLGQRATISCKASQSVDYDGNSYINWYQQKPGQPPKVLIYVASNLESGIPARFSGSGSGTDFTLNIHPVEEEDAATYYCQQSIEDPPTFGAGTKLELKR |
| 0.52 nM |  |  | 0.93 nM | sh2B8-9 (G1m(3)) = hu2B8 Hv5-51.1 + IgG1 constant G1m(3) allele 2 plus hu2B8 Kv1-39.1 + Kappa Km(3) allele 2 (antibody) heavy: not shown light: DIQMTQSPSSLSASVGDRVTITCKASENVVSYVSWYQQKPGKAPKLLIYGASNRNTGVPSRFSGSGSGTDFTLTISSLQPEDFATYYCGQSYNYPYTFGQGTKLEIKRTVAAPSVFIFPPSDEQLKSGTASVVCLLNNFYPREAKVQWKVDNALQSGNSQESVTEQDSKDSTYSLSSTLTLSKADYEKHKVYACEVTHQGLSSPVTKSFNRGEC |
|  | 0.684 nM | 4.69 nM |  | anti-hHGF monoclonal antibody 1A3 (antibody, mouse IgG1, kappa, V domains shown) VH: EVQLVESGGGLVQPGGSLKLSCAASEFTFSNYYMSWVRQTPEKRLQWVAYISPGGGSSYYPASVKGRFTISRDNAKNTLYLQMSSLKSEDTAMYYCARQGDGYYGDYAMDYWGQGTSVTVSS VL: DIQMTQSPASLSVSVGETVTITCRASENIYSNLAWYQQKQGKSPQLLVYAATNLADGVPSRFSGSGSGTQFSLKINSLQSEDFGTYYCQHFWGTPYTFGGGTKLEIKR |
|  | 0.984 nM | 4.99 nM |  | anti-hHGF monoclonal antibody 1D3 (antibody, mouse IgG1, kappa, V domains shown) VH: EVQLVESGGGLVQPGGSLKLSCAASGFTFSDYYMSWVRQTPEKRLEWVAYISSGGGSTYYPDSVKGRFTISRDNAKNTLYLQMSSLKSEDTAIYYCVRQGDGYYGDYAMDYWGQGTSVIVSS VL: DIQMTQSPASLSVSVGETVTITCRTSENIYSNLAWYQQKQGKSPQLLIYAATNLADGVPSRFSGSGSGTQFSLRINSLQSEDFGRYYCQHFWGTPYTFGGGTKLEIKR |
|  | 2 nM | 30.3 nM |  | anti-hHGF monoclonal antibody 3A12 (antibody, mouse IgG1, kappa, V domains shown) VH: EVQLVESGGGLVQPGGSLKISCAASGFTFSNYFMSWVRQTPEKRLEWVAYISSGGGSTYYPDSVKGRFTISRDNAKNTLYLQMNSLKSEDTAMYYCVRQGDGYYGDYAMDYWGQGTSVTVSS VL: DIQMTQSPASLSVSVGETVTITCRASENIYINLAWYQQKQGKSPQLLVHAATKLADGVPSRFSGSGSGTQYSLKINSLQSEDFGSYYCQHFWGTPYTFGGGTKLEIKR |
| 0.58 nM |  |  | 0.75 nM | HE2B8-4 (LRMR2B8HC + IgG1 G1m(3) allele 1 plus LRMR2B8LC + Kappa Km(3) allele 1) (antibody, V domains shown) VH: QVQLVQPGAEVKKPGTSVKLSCKASGYTFTTYWMHWVRQAPGQGLEWIGEINPTNGHTNYNQKFQGRATLTVDKSTSTAYMELSSLRSEDTAVYYCARNYVGSIFDYWGQGTLLTVSS VL: DIVMTQSPDSLAMSLGERVTLNCKASENVVSYVSWYQQKPGQSPKLLIYGASNRESGVPDRFSGSGSATDFTLTISSVQAEDVADYHCGQSYNYPYTFGQGTKLEIKR |
